From PMC4694752 (Molecular Biology of the Cell, 2016)

Experiments:
Assay in all cases: pull-down
GST-Sec23 = molecular target: T1, GST-Sec23 (yeast, UniProt P15303 1-768)
T1 sequence (looked up): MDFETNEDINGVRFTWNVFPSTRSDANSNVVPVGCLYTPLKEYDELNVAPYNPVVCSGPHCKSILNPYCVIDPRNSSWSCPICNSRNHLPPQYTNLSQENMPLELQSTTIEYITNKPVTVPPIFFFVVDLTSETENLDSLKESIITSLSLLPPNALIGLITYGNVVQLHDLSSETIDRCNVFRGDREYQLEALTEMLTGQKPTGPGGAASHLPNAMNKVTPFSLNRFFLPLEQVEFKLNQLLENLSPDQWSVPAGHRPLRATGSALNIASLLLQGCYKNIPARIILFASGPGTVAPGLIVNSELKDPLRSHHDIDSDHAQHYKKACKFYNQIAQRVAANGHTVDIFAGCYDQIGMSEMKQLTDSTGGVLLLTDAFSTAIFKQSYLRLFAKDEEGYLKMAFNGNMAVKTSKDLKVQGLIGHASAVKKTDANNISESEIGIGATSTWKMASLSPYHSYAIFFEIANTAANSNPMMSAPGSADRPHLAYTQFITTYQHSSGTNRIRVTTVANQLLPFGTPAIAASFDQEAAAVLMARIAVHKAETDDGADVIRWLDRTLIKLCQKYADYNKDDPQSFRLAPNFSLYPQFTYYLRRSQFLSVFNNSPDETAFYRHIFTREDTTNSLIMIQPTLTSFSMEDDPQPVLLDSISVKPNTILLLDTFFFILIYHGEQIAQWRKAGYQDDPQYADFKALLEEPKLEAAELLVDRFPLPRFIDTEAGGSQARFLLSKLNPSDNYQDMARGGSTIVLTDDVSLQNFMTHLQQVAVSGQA

GST-Sec24 = molecular target: T2, GST-Sec24 (yeast, UniProt P40482 1-926)
T2 sequence (looked up): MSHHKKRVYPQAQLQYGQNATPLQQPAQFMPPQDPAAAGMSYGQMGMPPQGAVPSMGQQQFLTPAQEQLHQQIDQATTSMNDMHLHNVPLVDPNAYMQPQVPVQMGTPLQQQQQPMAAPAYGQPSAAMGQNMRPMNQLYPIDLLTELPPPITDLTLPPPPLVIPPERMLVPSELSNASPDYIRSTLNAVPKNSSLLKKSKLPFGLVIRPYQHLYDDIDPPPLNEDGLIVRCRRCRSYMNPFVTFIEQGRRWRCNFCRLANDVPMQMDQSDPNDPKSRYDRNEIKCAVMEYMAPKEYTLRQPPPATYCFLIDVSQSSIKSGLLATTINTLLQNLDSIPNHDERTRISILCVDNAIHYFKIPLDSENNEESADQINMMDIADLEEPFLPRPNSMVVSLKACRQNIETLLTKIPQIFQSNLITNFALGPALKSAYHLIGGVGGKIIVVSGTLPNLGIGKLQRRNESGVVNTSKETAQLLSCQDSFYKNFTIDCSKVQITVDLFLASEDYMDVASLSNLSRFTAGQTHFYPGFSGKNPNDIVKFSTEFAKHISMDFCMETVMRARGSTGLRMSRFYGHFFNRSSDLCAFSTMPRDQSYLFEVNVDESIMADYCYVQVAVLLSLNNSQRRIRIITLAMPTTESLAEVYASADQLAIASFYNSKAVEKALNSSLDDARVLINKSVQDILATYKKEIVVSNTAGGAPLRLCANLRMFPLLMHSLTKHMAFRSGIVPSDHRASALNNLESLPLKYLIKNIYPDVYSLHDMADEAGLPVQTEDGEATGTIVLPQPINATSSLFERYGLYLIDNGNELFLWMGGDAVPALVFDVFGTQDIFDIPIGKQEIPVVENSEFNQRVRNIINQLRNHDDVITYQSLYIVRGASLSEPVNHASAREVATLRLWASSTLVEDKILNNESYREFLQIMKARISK

His6-Sec31 (aa 1–500) = molecular target: T3, His6-Sec31 (aa 1–500) (yeast, UniProt P38968 1-500)
T3 sequence (looked up): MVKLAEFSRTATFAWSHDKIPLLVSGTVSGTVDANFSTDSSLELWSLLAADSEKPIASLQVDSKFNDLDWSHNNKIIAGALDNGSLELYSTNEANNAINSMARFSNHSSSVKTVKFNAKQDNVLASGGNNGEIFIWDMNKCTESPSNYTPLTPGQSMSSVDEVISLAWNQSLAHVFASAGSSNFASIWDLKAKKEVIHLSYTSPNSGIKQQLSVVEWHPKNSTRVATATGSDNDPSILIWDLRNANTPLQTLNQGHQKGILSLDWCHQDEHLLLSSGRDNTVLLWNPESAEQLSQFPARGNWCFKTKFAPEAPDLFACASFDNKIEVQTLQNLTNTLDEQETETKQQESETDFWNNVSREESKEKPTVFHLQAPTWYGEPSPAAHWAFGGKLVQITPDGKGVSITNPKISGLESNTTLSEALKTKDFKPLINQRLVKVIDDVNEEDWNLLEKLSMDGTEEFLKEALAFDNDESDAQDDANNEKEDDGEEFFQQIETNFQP

B1: His6-auxilin (natural protein, yeast, UniProt Q06677 1-668, looked up)
chain: MSDPFAHLLTSLKNKDSASASKETTPQSSNSPSITGSAVADVARTDKSPNDSLHSISAPPLIPSPKVDFSAPPLVPTNSTTKSNTANNTPPSALANTDDDFNQLFGMGTVTTTDTIQKPDEDYYGSKEDHLYNGDDALVDEVKDMEIARLMSLGLSIEEATEFYENDVTYERYLEILKSKQKERNDLAIRKKESGIKMEKSGLSNIVGTDSNNLFSMATDFFNKGKKLVDQWTSFPPEANDRLNNYSKTHDKVEDYDLPQVNDSPNRILFEDNEVVENLPPADNPDQDLLTDFETKIDITKRTAPDVSHSSSPTSGILIEENSRRNEPLIEDSLLDFSEGNLTNSKSNEDSTLFNENSNTDSTIPISDIELSGYNEFKAKGTSLFKNGDYINSLQEYEKSLNTLPLNHPLRIIALSNIIASQLKIGEYSKSIENSSMALELFPSSKAKWKNKISNSDPERSFNDIWPKIMIRRAESFEHLESFKKALETYQELIKKNFFDDKIMQGKRRCQDFINPPPVKKSMPVKKKTTTTSPATKKQNLTASSSNSPISVDSTSEIKKRELENAKLALYDKVFEKISSWKDGKDDDIRHLLANLSSLLTWCNWKDVSMQDLVMPKRVKITYMKAVAKTHPDKIPESLSLENKMIAENIFSTLSIAWDKFKLQNDIN
- binding result (GST-Sec23): binds
- binding result (GST-Sec24): binds

B2: GST-auxilin-TPR domain (aa 363–561) (domain or fragment, yeast, UniProt Q06677 363-561, looked up)
chain: TIPISDIELSGYNEFKAKGTSLFKNGDYINSLQEYEKSLNTLPLNHPLRIIALSNIIASQLKIGEYSKSIENSSMALELFPSSKAKWKNKISNSDPERSFNDIWPKIMIRRAESFEHLESFKKALETYQELIKKNFFDDKIMQGKRRCQDFINPPPVKKSMPVKKKTTTTSPATKKQNLTASSSNSPISVDSTSEIKKR
- binding result (His6-Sec31 (aa 1–500)): binds
